Laboratory results published in the supplement of paper PMC9170038.

Test system: MS2 coat protein
Experiment: apparent KD of MS2 coat protein; designed switch direction (-1 OFF switch, 1 ON switch): 1; higher = weaker reporter binding
Summary of the method: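 The buffer was Tris-HCl pH 7.5 with KCl, MgCl2, BSA, DTT, tRNA and Tween-20. In it, SNAP-549-labelled MS2 coat protein was titrated in doubling steps from 0.7 or 1.5 nM to 3 µM over chip-bound RNA switches transcribed by stalled E. coli RNA polymerase on Illumina chips. Apparent KD is the per-design median over clusters of curve fits to normalised fluorescence.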

[1] = input ligand: microRNA oligo, concentration not stated
[2] = Eterna round: R95, input ligand: FMN 200 uM
[3] = Eterna round: R95, input ligand: microRNA oligo, concentration not stated
[4] = Eterna round: R95, input ligand: none

| Sequence | apparent KD of MS2 coat protein (input ligand: FMN 200 uM) [nM] | apparent KD of MS2 coat protein [1] [nM] | apparent KD of MS2 coat protein (input ligand: none) [nM] | apparent KD of MS2 coat protein [2] [nM] | apparent KD of MS2 coat protein [3] [nM] | apparent KD of MS2 coat protein [4] [nM] |
| --- | --- | --- | --- | --- | --- | --- |
| GUAGCAUACCGAGGAUAUUCAUAAAAUAAAUAAACAUGAGGAUCACCCAUGUGGCGAAAGCCUUGGGAGAAGGCGGAAUGCUAC [Xeonanis - 20 Mod73] (Eterna round: R96, puzzle: Same State NG 2) | 20 | 370 | 359 |  |  |  |
| GUAGCAUACCGAGGAUAUUCAUAUAAUACAUGAGGAUCACCCAUGUUAAAUAGGCGAAAGCCUUGGGAGAAGGCGGAAUGCUAC [Xeonanis - 20 Mod66] (Eterna round: R96, puzzle: Same State NG 2) | 10.5 | 13 | 17.1 |  |  |  |
| GUAGCAUACCGAGGAUAUUCAUAUAAUAUUACAUGAGGAUCACCCAUGUAUAGGCGAAAGCCUUGGGAGAAGGCGGAAUGCUAC [Xeonanis - 20 Mod61] (Eterna round: R96, puzzle: Same State NG 2) | 13.2 | 24.9 | 28.6 |  |  |  |
| GUAGCAUACCGAGGAUAUUCAUAUACAUGAGGAUCACCCAUGUUAAAUAAUAGGCGAAAGCCUUGGGAGAAGGCGGAAUGCUAC [Xeonanis - 20 Mod70] (Eterna round: R96, puzzle: Same State NG 2) | 10.3 | 9.72 | 12.6 |  |  |  |
| GUAGCAUACCGAGGAUAUUCAUAUUACAUGAGGAUCACCCAUGUUAUAUAGGCCAAAAGGCCUUGGGAGAAGGCGGAAUGCUAC [Xeonanis - 20 Mod9] (Eterna round: R96, puzzle: Same State NG 2) | 10.3 | 9.73 | 14.7 |  |  |  |
| GUAGCAUACCGAGGAUAUUCAUUACAUGAGGAUCACCCAUGUUUAUUAUAGGCCAAAAGGCCUUGGGAGAAGGCGGAAUGCUAC [Xeonanis - 20 Mod12] (Eterna round: R96, puzzle: Same State NG 2) | 8.36 | 8.47 | 10.7 |  |  |  |
| GUAUAACAUGAGGAUCACCCAUGUCAACAAAGUCGAGGAUAUGGGCAUAUAAUAUAUGAACCAGAAGGCGAAUAUG [Mat - Same State 1 - Mod of UCT - D36] (puzzle: Same State 1) |  |  |  | 34.2 | 37.9 | 56.7 |
| GUAUAACAUGAGGAUCACCCAUGUCAUCUAAGUCGAGGAUAUGGGCAAAUAUAAUAAGAACCAGAAGGCGAAUAUG [Mat - Same State 1 - Mod of UCT - D34] (puzzle: Same State 1) |  |  |  | 57.8 | 111 | 119 |
| GUAUCUACAGGUUGCAAUGCUCGUCGGAUACAUGAGGAUCACCCAUGUUAUAGCCCUGUGCUUGCGCAGGGCUGAUU [Sensor for hsa-mir-208a ( MOD of Tearor )] (puzzle: Sensor for hsa-mir-208a) |  |  |  | 46.8 | 39.4 | 49.5 |
| GUCGGCCUGUCGUGCUGAGGUGAUAGUUAACAUGAGGAUCACCCAUGUUGCUGUCGGGUCGUUGGGAGUUUUCUUCG [Modxample 117 - Jieux - Sensor for bsa-mir-208a] (Eterna round: R96, puzzle: Sensor for hsa-mir-208a) | 71.2 | 50.8 | 62.4 |  |  |  |
| GUGAAGAAUUAAGGAUAUCGAGUCAAGAUGUUAAACAUGAGGAUCACCCAUGUGGGUUGCGGUAUCGAGAAGGUAAAUUACAGG [salish99_SSNG2_r04_502] (Eterna round: R96, puzzle: Same State NG 2) | 25.9 | 21.1 | 31.7 |  |  |  |
| GUGAAGAAUUAAGGAUAUUGAAUACAUAUGUUUAACAUGAGGAUCACCCAUGUGGGUUGCGGUAUCGAGAAGGUAAAUUACUAG [salish99_SSNG2_r04_031] (Eterna round: R96, puzzle: Same State NG 2) | 95.5 | 89.9 | 118 |  |  |  |
| GUGCAACCGUGUGAGGAUAUCGGUGAAUAGACAUGAGGAUCACCCAUGUCCGAAGCUCGGUUCUCCGAGAAGGCGCACAGUUGCA [Same State 2 - Mod of Erisin v.5] (puzzle: Same State 2) |  |  |  | 42.8 | 41.5 | 52.4 |
| GUGGAGAAUUAAGGAUAUCGAGUCAAGAUGUUAAACAUGAGGAUCACCCAUGUGGGUUGCGGUAUCGAGAAGGUAAUUUACGGG [salish99_SSNG2_r04_505] (Eterna round: R96, puzzle: Same State NG 2) | 22.4 | 21.3 | 36.8 |  |  |  |
| GUGGUCAGACAUGAGGAUCACCCAUGUGGAAUAAAUAAGGAAAAGGAUAUCGAAUAUAGGAUAUACGAGAAGGUUUGGUUGGUG (Eterna round: R96, puzzle: Same State NG 3) |  | 73.6 |  |  |  |  |
| GUGGUCAGACAUGAGGAUCACCCAUGUGGAAUAAAUAAGGAAAAGGAUAUGGAAUAUAGGAUAUACCAGAAGGUUUGGUUGGUG (Eterna round: R96, puzzle: Same State NG 3) |  | 83 |  |  |  |  |
| GUGGUCAGACAUGAGGAUCACCCAUGUGGAAUAAAUAAGGACAAGGAUAUGGAAUAUAGGAUAUACCAGAAGGUGUGGUUGGUG (Eterna round: R96, puzzle: Same State NG 3) |  | 67.5 |  |  |  |  |
| GUGGUCAGACAUGAGGAUCACCCAUGUGGAAUAAAUAAGGAGAAGGAUAUGGAAUAUAGGAUAUACCAGAAGGUUUGGUUGGUG (Eterna round: R96, puzzle: Same State NG 3) |  | 90.5 |  |  |  |  |
| GUGGUCAGACAUGAGGAUCACCCAUGUGGAAUAAAUAAGGGACAGGAUAUGGAAUAUAGGAUAUACCAGAAGGGUUGGUUGGUG (Eterna round: R96, puzzle: Same State NG 3) | 86.2 | 68.7 | 82 |  |  |  |
| GUGGUCAGACAUGAGGAUCACCCAUGUGGAAUAAAUAAGGGUCAGGAUAUGGAAUAUAGGAUAUACCAGAAGGGAUGGUUGGUG (Eterna round: R96, puzzle: Same State NG 3) | 134 | 70.2 | 92.8 |  |  |  |
| GUGGUCUGACAUGAGGAUCACCCAUGUGGAAUAAAUAAGGGUUAGGAUAUCUUGAGGAUCACCCAAGAGAAGGGAUGGUUGGUG (Eterna round: R96, puzzle: Same State NG 3) | 125 | 90.7 | 124 |  |  |  |
| GUGGUCUGACAUGAGGAUCACCCAUGUGGAAUAAAUACGGGUUAGGAUAUCUUGAGGAUCACCCAAGAGAAGGGAUCGAUUGUU (Eterna round: R96, puzzle: Same State NG 3) |  | 36.4 |  |  |  |  |
| GUGGUGGGUUGAGGAUAUUGGUUGUUGUUGUUUUACAUGAGGAUCACCCAUGUGGGUUGUGGUUUUGAGAAGGUUGGUUGCUGG [salish99_SSNG2_r04_048] (Eterna round: R96, puzzle: Same State NG 2) | 262 | 194 | 185 |  |  |  |
| GUGGUGUAGAUACAGGAUAUGUUGCUCGUAACAUGAGGAUCACCCAUGUAUCUAUGAGAUAAAAUGCAGAAGGGUGCACACCACU [Mat - Same State 2 - Mod of UCT - D75] (puzzle: Same State 2) |  |  |  |  | 245 |  |
| GUGGUGUAGAUACAGGAUAUGUUGCUCGUAACAUGAGGAUCACCCAUGUAUGUAUGAGAAUGAAUGCAGAAGGGUGCACACCACG [Mat - Same State 2 - Mod of UCT - D77] (puzzle: Same State 2) |  |  |  | 13.8 | 106 | 159 |
| GUUACAUGAGGAUCACCCAUGUAAGUGUGGGAGAAAGUGACUUAGGAUAUCUAAUAUUUAAAUUAAGAGAAGGAAGAUUGUUGU [JMF's solution 4] (Eterna round: R96, puzzle: Same State NG 3) | 86.8 | 64.3 | 81.6 |  |  |  |
| GUUACAUGAGGAUCACCCAUGUAUGUGUGGGAGUAAGUGUCUUAGGAUAUCUAGUAUUUAGUUUAAGAGAAGGAAGAUUGUUGU [JMF's solution 61] (Eterna round: R96, puzzle: Same State NG 3) | 127 | 90 | 88.2 |  |  |  |
| GUUACAUGAGGAUCACCCAUGUAUGUGUGGGAGUAAGUGUCUUAGGAUAUCUAUGAGUUAAUUUAAGAGAAGGAAGAUUGUUGU [JMF's solution 74] (Eterna round: R96, puzzle: Same State NG 3) | 97.2 | 63.4 | 77.5 |  |  |  |
